Measured values taken from paper PMC5725826, “Characterization of UGT716A1 as a Multi-substrate UDP:Flavonoid Glucosyltransferase Gene in Ginkgo biloba” (Frontiers in Plant Science, 2017).

Legend:
[1] = target: T1, UGT92K1 (Ginkgo biloba, UniProt A0A2Z2PC79); assay: HPLC glucosylation assay, product identified with authentic standard; assay type: biochemical; conditions: 100 μM substrate; 4 mM UDP-glucose; Tris-HCl pH 7.0; 30°C; product genistein 7-O-glucoside
T1 construct: gene UGT7
T1 sequence (A0A2Z2PC79 1-496): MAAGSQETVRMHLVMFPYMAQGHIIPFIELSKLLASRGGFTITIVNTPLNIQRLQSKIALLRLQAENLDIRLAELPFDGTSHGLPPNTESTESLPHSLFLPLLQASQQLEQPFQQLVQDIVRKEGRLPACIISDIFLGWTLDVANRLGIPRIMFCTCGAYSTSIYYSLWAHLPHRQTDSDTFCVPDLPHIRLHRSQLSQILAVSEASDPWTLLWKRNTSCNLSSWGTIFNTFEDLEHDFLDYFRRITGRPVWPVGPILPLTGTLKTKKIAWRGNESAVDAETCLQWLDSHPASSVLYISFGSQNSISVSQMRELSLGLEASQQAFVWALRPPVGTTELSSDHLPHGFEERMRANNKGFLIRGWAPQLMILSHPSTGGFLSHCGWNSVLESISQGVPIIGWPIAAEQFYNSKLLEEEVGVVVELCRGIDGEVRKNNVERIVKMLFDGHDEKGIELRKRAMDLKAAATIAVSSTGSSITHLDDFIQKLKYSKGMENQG

[2] = substrate: COC(=O)c1cc(O)c(O)c(O)c1; assay: purified protein; assay type: biochemical, Ginkgo biloba; conditions: 4 mM UDP-glucose, Tris-HCl pH 7.0, 30°C
[3] = substrate: O=c1c(-c2ccc(O)cc2)coc2cc(O)cc(O)c12; assay: purified protein; assay type: biochemical, Ginkgo biloba; conditions: 4 mM UDP-glucose, Tris-HCl pH 7.0, 30°C
[4] = substrate: O=C(O[C@@H]1Cc2c(O)cc(O)cc2O[C@H]1c1cc(O)c(O)c(O)c1)c1cc(O)c(O)c(O)c1; assay: purified protein; assay type: biochemical, Ginkgo biloba; conditions: 4 mM UDP-glucose, Tris-HCl pH 7.0, 30°C
[5] = substrate: O=C(O[C@@H]1Cc2c(O)cc(O)cc2O[C@@H]1c1cc(O)c(O)c(O)c1)c1cc(O)c(O)c(O)c1; assay: purified protein; assay type: biochemical, Ginkgo biloba; conditions: 4 mM UDP-glucose, Tris-HCl pH 7.0, 30°C
[6] = substrate: O=C(O[C@@H]1Cc2c(O)cc(O)cc2O[C@H]1c1ccc(O)c(O)c1)c1cc(O)c(O)c(O)c1; assay: purified protein; assay type: biochemical, Ginkgo biloba; conditions: 4 mM UDP-glucose, Tris-HCl pH 7.0, 30°C
[7] = substrate: O=c1c(O)c(-c2ccc(O)c(O)c2)oc2cc(O)cc(O)c12; assay: purified protein; assay type: biochemical, Ginkgo biloba; conditions: 4 mM UDP-glucose, Tris-HCl pH 7.0, 30°C
[8] = substrate: O=c1cc(-c2ccc(O)c(O)c2)oc2cc(O)cc(O)c12; assay: purified protein; assay type: biochemical, Ginkgo biloba; conditions: 4 mM UDP-glucose, Tris-HCl pH 7.0, 30°C
[9] = substrate: O=c1cc(-c2ccc(O)cc2)oc2cc(O)cc(O)c12; assay: purified protein; conditions: 4 mM UDP-glucose, Tris-HCl pH 7.0, 30°C

| Molecule | HPLC glucosylation assay, product identified with authentic standard [1] | Km [2] | Km [3] | Km [4] | Km [5] | Km [6] | Km [7] | Km [8] | Km [9] |
| --- | --- | --- | --- | --- | --- | --- | --- | --- | --- |
| O=c1c(-c2ccc(O)cc2)coc2cc(O)cc(O)c12 [genistein] | recombinant UGT92K1 protein only displayed activity toward genistein |  |  |  |  |  |  |  |  |
| UGT716A1 (Ginkgo biloba) (protein) MEMAGGYIMVVPFHGQGHVFPCLELCKQLAARGVAVTIVASRSIRSSLQSIANHDASGLGVRIMELREATSEEQDAHPGPFLTDTLQEPFEEMLNNLAAEAAPLPLCVIGDVMVGWVTTVCDKFHIPRVPFFTSSACSIAFEYALWKHRPLDLKEDEAFAVPGFPESMPIALSDTLHRAPHPPDHHQRNPPPFPRRGHPPPPDRGHPPPFGHGGPPHGPPHPPTGPDSNPRSPPWMNGLNESSGFLVNTCRELEAPFIEYMVKETEKPVWAVGPLLPSSFWEGSITHDSSFRSRKSNIDEKQCLEWLNSKPPASVLYVSFGSEVGPSEEEIRELAYGLEAAQKPFIWVLQAGHHHPHHQEEAEEQDLLPAGFEHRLEGRGLIIRGWAPQLLILSHPSTGGFLSHCGWNSTVESIGHGVPLLAWPIRGDQHYNAKLLVAELKVAAMIHMPKDDGMVRREEIAKGVDVLLGSEHGEKLRERAVSLKLRLASCSGSSQKMLDAFVVHLSSLQKKL |  | 390 µM | 310 µM | 3.2 µM | 43 µM | 14 µM | 10 µM | 28 µM | 230 µM |
